Target: T1, Spermine synthase (Homo sapiens, UniProt P52788)
T1 chain: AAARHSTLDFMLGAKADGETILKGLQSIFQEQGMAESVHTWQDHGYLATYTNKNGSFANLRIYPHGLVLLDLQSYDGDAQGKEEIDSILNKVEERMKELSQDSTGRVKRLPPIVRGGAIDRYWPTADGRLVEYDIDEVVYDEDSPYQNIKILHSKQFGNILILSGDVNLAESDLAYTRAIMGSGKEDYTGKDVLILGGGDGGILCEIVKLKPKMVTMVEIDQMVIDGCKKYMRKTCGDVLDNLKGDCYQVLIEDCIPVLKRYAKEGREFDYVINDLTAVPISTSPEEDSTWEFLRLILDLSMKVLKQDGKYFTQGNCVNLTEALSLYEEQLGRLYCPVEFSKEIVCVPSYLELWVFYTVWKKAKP
Assay: MST

Kd: 3.5 µM
B1: Myosin Va GTD (protein)
chain: MENISPGQIIDEPIRPVNIPRKEKDFQGMLEYKKEDEQKLVKNLILELKPRGVAVNLIPGLPAYILFMCVRHADYLNDDQKVRSLLTSTINSIKKVLKKRGDDFETVSFWLSNTCRFLHCLKQYSGEEGFMKHNTSRQNEHCLTNFDLAEYRQVLSDLAIQIYQQLVRVLENILQPMIVSGMLEHETIQGVSGVKPTGLRKRTSSIADEGTYTLDSILRQLNSFHSVMCQHGMDPELIKQVVKQMFYIIGAITLNNLLLRKDMCSWSKGMQIRYNVSQLEEWLRDKNLMNSGAKETLEPLIQAAQLLQVKKKTDDDAEAICSMCNALTTAQIVKVLNLYTPVNEFEERVSVSFIRTIQMRLRDRKDSPQLLMDAKHIFPVTFPFNPSSLALETIQIPASLGLGFISRV

Reference: paper PMC6488853 (2019)
